Assay results taken from patent US12383631B2, “Immune antigen specific IL-18 immunocytokines and uses thereof” (Bright Peak Therapeutics AG, priority 2022, dated 2025).

Tests used:
human PD-1/CD279 = human PD-1/CD279 (Homo sapiens, UniProt Q15116); assay: PD-1 binding ELISA (Example 5); conditions: coated antibody or immunocytokine, biotinylated human PD-1/CD279-Fc
Description: (§1) The interaction of the unmodified antibodies and corresponding IL-18 immunocytokines with relevant immune cell associated antigen are measured by ELISA assay. For these studies, Corning high-binding half-area plates (Fisher Scientific, Reinach, Switzerland) are coated overnight at 4° C. with 25 μl of unmodified antibodies corresponding IL-18 immunocytokines at 5 μg/ml in PBS. Plates are then washed four times with 100 μl of PBS-0.02% Tween20. Plate surfaces are blocked with 25 μl of PBS-0.02% Tween20-1% BSA at 37° C. during 1 h. Plates are then washed four times with 100 μl of PBS-0.02% Tween20. […] Plates are then washed four times with 100 μl of PBS-0.02% Tween20. Twenty-five microliters of Streptavidin-Horseradish peroxidase (#RABHRP3, Merck, Buchs, Switzerland) diluted at 1:500 into PBS-0.02% Tween20-0.1% BSA are added to each well and incubated at Room Temperature during 30 min. Plates are then washed four times with 100 μl of PBS-0.02% Tween20. Fifty microliters of TMB substrate reagent (#CL07, Merck, Buchs, Switzerland) are added to each well and incubated at 37° C. during 5 min. After 5 min at 37° C., Horseradish peroxidase reaction is stopped by adding 50 μl/well of 0.5M H2SO4 stop solution. ELISA signal is then measured at 450 nm on an ENSPTRE® plate reader from Perkin Elmer (Schwerzenbach, Switzerland).

human PD-L1/B7-H1 = human PD-L1/B7-H1 (Homo sapiens, UniProt Q9NZQ7); assay: PD-L1 binding ELISA (Example 5); conditions: coated antibody or immunocytokine, biotinylated human PD-L1/B7-H1
Description: as §1

[1] = tested on: PD-1 positive (transduced) KG-1 cells; assay: IFN gamma secretion assay in PD-1 transduced KG-1 cells (Example 11); format: cell-based, human; conditions: IFNγ secretion, PD-1 transduced KG-1 cells, 20-24 h
Description: The KG-1 cell line was used to generate a PD-1 expressing cell line and furthermore, to measure IFNγ release upon incubation with TL-18 variants and corresponding TL-18 immunocytokines.
PD-1 expressing cell line generation: Briefly, KG-1 cells were transduced using lentiviral particles carrying the human PD-1 gene (PDCD1 NM_005018; Origene, CAT #: RC210364L3V) at a MOI (Multiplicity of Infection) of 30. Spinfection was performed at 1260 g during 90 min at 37° C. in the presence of 5 μg/ml of Polybrene and 10 mM of HEPES in complete culture media (RPMI, 10% FBS, 1% L-Glutamine). Five days after transduction, puromycin at a final concentration of 1 μg/ml was added to select for PD-1 positive cells. For culture maintenance, puromycin concentration was decreased to 0.5 μg/ml. Stable and homogenous expression of PD-1 was verified by surface staining (BD Pharmingen, #557860).
IFNγ release was assessed in PD-1 positive (transduced) KG-1 cells, as well as in the parental PD-1 negative cells. 0.5×10^5 cells were seeded into a 96-well U-bottom plate in culture media (RPMI, 10% FBS, […]) and stimulated with IL-18 variants/ICs for 20-24 h. The test items were diluted to 100 nM in culture medium, followed by 7 10-fold serial dilutions. The lowest concentration assessed was […]. After incubation, IFNγ release was measured using the LEGENDplex custom human mix and match KIT (Biolegend LEGENDplex™ Human IFN-γ Capture Bead B5, 13×#740942, LEGENDplex™ P 1 Essential Immune Response Panel Detection Abs, #740931, LEGENDplex™ Buffer Set A #740368). To this end, cell culture supernatant was collected and diluted 1:1 with Assay Buffer. Fluorescence measurements were done with a Quanteon Flow Cytometer from Acea Biosciences. For analysis, MFI values (median fluorescence intensity) were exported and plotted against concentrations used. The EC50 values (half maximal effective concentration) were calculated based on a variable slope and four parameter analysis using GraphPad PRISM software version 9.

His-tagged human PD1 = His-tagged human PD1 (Homo sapiens, UniProt Q15116); assay: Bio-Layer Interferometry (BLI) binding kinetics to PD-1 (Example 6); conditions: AHC sensors, analyte His-tagged human PD1
Excerpt: Based on Bio-Layer Interferometry (BLI), Octet® BLI systems enable real-time, label-free analysis for the determination of kinetics and affinity of a ligands to its receptor. Here anti-human IgG FC Capture (AHC) sensors are loaded with the test items (ICs). Sensors are first dipped into a kinetic buffer for baseline measurement, then into an analyte solution, here human PD1, to allow association and again into a buffer solution where the analyte is allowed to come off the ligand (dissociation). Several concentrations of analyte are run in parallel and enable the calculation of affinity parameters: Ka, Kd, KD.
Typically, first, the sensors are regenerated by 3 cycles of dipping into 10 mM glycine solution at pH=2 for 20 seconds, followed by 20 second kinetics buffer and a final 60 seconds in kinetics buffer to establish the initial signal (baseline). Second, the loading column will contain the ligand, here the unmodified PD-1 antibodies and of IL-18 polypeptide conjugated PD-1 antibody, at a fixed concentration determined in the loading scout experiment (20 ug/mL). Then another wash/baseline step allows non immobilized proteins to be washed away. […] After acquisition, the data is analyzed with Data Analysis Studio software (Sartorius). […] Group fitting is then applied to the data series and kinetics parameters are calculated.

Chain of human PD-L1/B7-H1 (Q9NZQ7 19-290): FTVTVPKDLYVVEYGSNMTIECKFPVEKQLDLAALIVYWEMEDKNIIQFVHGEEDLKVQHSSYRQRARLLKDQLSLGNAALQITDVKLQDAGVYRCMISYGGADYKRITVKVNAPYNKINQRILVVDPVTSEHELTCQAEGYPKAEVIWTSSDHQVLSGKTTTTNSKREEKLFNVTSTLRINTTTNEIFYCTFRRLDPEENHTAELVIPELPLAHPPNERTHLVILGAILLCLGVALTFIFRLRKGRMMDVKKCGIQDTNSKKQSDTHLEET
Chain of His-tagged human PD1 (Q15116 25-288): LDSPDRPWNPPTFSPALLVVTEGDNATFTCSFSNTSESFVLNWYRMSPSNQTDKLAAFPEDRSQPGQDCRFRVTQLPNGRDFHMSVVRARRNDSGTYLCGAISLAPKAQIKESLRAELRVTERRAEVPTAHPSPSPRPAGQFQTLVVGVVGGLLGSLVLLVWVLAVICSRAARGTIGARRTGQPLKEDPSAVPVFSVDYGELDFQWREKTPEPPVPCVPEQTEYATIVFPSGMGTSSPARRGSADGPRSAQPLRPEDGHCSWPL
Chain of human PD-1/CD279 (Q15116 25-288): as above

Kd (human PD-1/CD279) | Kd (human PD-L1/B7-H1) | EC50 [1] | ka (His-tagged human PD1) | kd (His-tagged human PD1) | Substance
> 100 nM | 0.443 nM |  |  |  | Atezolizumab/Tecentriq: anti-PD-L1 antibody, unconjugated reference antibody [reference compound]
> 100 nM |  | 0.0036 nM |  |  | Composition B: immunocytokine: Atezolizumab/Tecentriq (anti-PD-L1) conjugated to IL-18 polypeptide SEQ ID NO: 30
 | > 100 nM |  | 342000 M⁻¹ s⁻¹ | 0.0077 s⁻¹ | LZM-009: anti-PD-1 antibody (VH SEQ ID NO: 376, VL SEQ ID NO: 377), unconjugated reference antibody [reference compound]
